Measurements as given in article PMC2662417, “Pxmp2 Is a Channel-Forming Protein in Mammalian Peroxisomal Membrane” (PLoS ONE, 2009).

What was measured:
[1] = molecular target: the molecule itself; assay: SEC + cross-linking; purified native Pxmp2 in detergent; Superdex 200 size-exclusion chromatography; protein eluted from the column treated with Sulfo-EGS, immunoblot with anti-Pxmp2; details in Text S1
[2] = molecular target: the molecule itself; assay: cross-linking; Genapol X-080-solubilised proteins (about 50 ug) of the PPF of Sf9 cells expressing His-tagged Pxmp2; DSS at 0.1, 0.2, 0.5 and 1.0 mM, 30 min at room temperature; SDS-PAGE, immunoblot with anti-His-tag antibodies

Protein | stoichiometry N [1] | stoichiometry N [2]
native Pxmp2 purified from mouse liver peroxisomes (natural protein, mouse (endogenous in mouse liver), UniProt P42925 1-194, looked up, Pxmp2, peroxisomal membrane protein 2 (22 kDa), mouse; native protein isolated from liver peroxisomes; also called PMP22; purified Pxmp2; source: purified from mouse liver peroxisomes (conventional chromatography: ion-exchange and size-exclusion steps, in detergent)) MAPAASRLRVESELGSLPKRALAQYLLLLKLYPVLTKAVSSGILSALGNLLAQTIEKKQRKDSRLLEVSGLLRYLVYGLFVTGPLSHYLYLFMEYSVPPEVPWASVKRLLLDRLFFAPTFLLLFFFVMNLLEGKNVSVFVAKMRSGFWPALQMNWRMWTPLQFININYVPLQFRVLFANMAALFWYAYLASLGK | 3 | 
His-tagged Pxmp2 protein (natural protein, mouse, UniProt P42925 1-194, looked up, Pxmp2, mouse, recombinant with a His tag (about 27 kDa); also called mouse recombinant Pxmp2) MAPAASRLRVESELGSLPKRALAQYLLLLKLYPVLTKAVSSGILSALGNLLAQTIEKKQRKDSRLLEVSGLLRYLVYGLFVTGPLSHYLYLFMEYSVPPEVPWASVKRLLLDRLFFAPTFLLLFFFVMNLLEGKNVSVFVAKMRSGFWPALQMNWRMWTPLQFININYVPLQFRVLFANMAALFWYAYLASLGK |  | 3
